Data on 3 proteins can be found in paper PMC6210165, “Structure-Based Engineering of Phanerochaete chrysosporium Alcohol Oxidase for Enhanced Oxidative Power toward Glycerol” (Biochemistry, 2018).

Common to all, as to details: 50 mM potassium phosphate pH 7.5, 25 °C, co-substrate O2, fit errors ≤11%
Substrate in series [1]: CCO
The experiment in a line: purified protein.

Substrate in series [2]: CCCO
The experiment in a line: HRP-coupled H2O2 assay, steady-state kinetics. Type of series: biochemical, Phanerodontia chrysosporium. An excerpt: (§1) HRP-coupled H2O2 assay, steady-state kinetics on PcAOX (His-SUMO-PcAOX)

Substrate in series [3]: CO
Kind of series: HRP-coupled H2O2 assay, steady-state kinetics. Type of series: biochemical, Phanerodontia chrysosporium.
Source text: as §1

B1: PcAOX (His-SUMO-PcAOX) (Phanerodontia chrysosporium) (protein)
chain: MGHPEEVDVIVCGGGPAGCVVAGRLAYADPTLKVMLIEGGANNRDDPWVYRPGIYVRNMQRNGINDKATFYTDTMASSYLRGRRSIVPCANILGGGSSINFQMYTRASASDWDDFKTEGWTCKDLLPLMKRLENYQKPCNNDTHGYDGPIAISNGGQIMPVAQDFLRAAHAIGVPYSDDIQDLTTAHGAEIWAKYINRHTGRRSDAATAYVHSVMDVQDNLFLRCNARVSRVLFDDNNKAVGVAYVPSRNRTHGGKLHETIVKARKMVVLSSGTLGTPQILERSGVGNGELLRQLGIKIVSDLPGVGEQYQDHYTTLSIYRVSNESITTDDFLRGVKDVQRELFTEWEVSPEKARLSSNAIDAGFKIRPTEEELKEMGPEFNELWNRYFKDKPDKPVMFGSIVAGAYADHTLLPPGKYITMFQYLEYPASRGKIHIKSQNPYVEPFFDSGFMNNKADFAPIRWSYKKTREVARRMDAFRGELTSHHPRFHPASPAACKDIDIETAKQIYPDGLTVGIHMGSWHQPSEPYKHDKVIEDIPYTEEDDKAIDDWVADHVETTWHSLGTCAMKPREQGGVVDKRLNVYGTQNLKCVDLSICPDNLGTNTYSSALLVGEKGADLIAEELGLKIKTPHAPVPHAPVPTGRPATQQVR
notes: codon-optimized, E. coli BL21(DE3); N-terminal His-SUMO fusion kept for all kinetics, tag cleaved for crystals; homo-octamer with FAD; residues 2-645 seen in structure
As to B1, in series [1], the Km is 15 mM, the turnover number (kcat) was 19 s⁻¹ and the kcat/Km was 1300 M⁻¹ s⁻¹. Also, in series [2], the Michaelis constant (Km) turned out to be 45 mM, the kcat is 11 s⁻¹ and the kcat/Km turned out to be 240 M⁻¹ s⁻¹. Also, in series [3], the Km was found to be 2 mM, the catalytic constant (kcat) was determined as 18 s⁻¹ and the kcat/Km came to 9000 M⁻¹ s⁻¹.

B2: PcAOX (His-SUMO-PcAOX) (Phanerodontia chrysosporium; F101N) (protein)
chain: MGHPEEVDVIVCGGGPAGCVVAGRLAYADPTLKVMLIEGGANNRDDPWVYRPGIYVRNMQRNGINDKATFYTDTMASSYLRGRRSIVPCANILGGGSSINNQMYTRASASDWDDFKTEGWTCKDLLPLMKRLENYQKPCNNDTHGYDGPIAISNGGQIMPVAQDFLRAAHAIGVPYSDDIQDLTTAHGAEIWAKYINRHTGRRSDAATAYVHSVMDVQDNLFLRCNARVSRVLFDDNNKAVGVAYVPSRNRTHGGKLHETIVKARKMVVLSSGTLGTPQILERSGVGNGELLRQLGIKIVSDLPGVGEQYQDHYTTLSIYRVSNESITTDDFLRGVKDVQRELFTEWEVSPEKARLSSNAIDAGFKIRPTEEELKEMGPEFNELWNRYFKDKPDKPVMFGSIVAGAYADHTLLPPGKYITMFQYLEYPASRGKIHIKSQNPYVEPFFDSGFMNNKADFAPIRWSYKKTREVARRMDAFRGELTSHHPRFHPASPAACKDIDIETAKQIYPDGLTVGIHMGSWHQPSEPYKHDKVIEDIPYTEEDDKAIDDWVADHVETTWHSLGTCAMKPREQGGVVDKRLNVYGTQNLKCVDLSICPDNLGTNTYSSALLVGEKGADLIAEELGLKIKTPHAPVPHAPVPTGRPATQQVR
notes: as for B1
As to B2, in series [1], the Km turned out to be 11 mM, the kcat turned out to be 10 s⁻¹ and the catalytic efficiency (kcat/Km) was 910 M⁻¹ s⁻¹. Moreover, in series [2], the Michaelis-Menten constant (Km) amounted to 11 mM, the turnover number (kcat) was 12 s⁻¹ and the catalytic efficiency (kcat/Km) amounted to 1100 M⁻¹ s⁻¹. Also, in series [3], the Michaelis constant (Km) worked out at 14 mM, the kcat stood at 10 s⁻¹ and the kcat/Km was determined as 710 M⁻¹ s⁻¹.

B3: PcAOX (His-SUMO-PcAOX) (Phanerodontia chrysosporium; F101S) (protein)
chain: MGHPEEVDVIVCGGGPAGCVVAGRLAYADPTLKVMLIEGGANNRDDPWVYRPGIYVRNMQRNGINDKATFYTDTMASSYLRGRRSIVPCANILGGGSSINSQMYTRASASDWDDFKTEGWTCKDLLPLMKRLENYQKPCNNDTHGYDGPIAISNGGQIMPVAQDFLRAAHAIGVPYSDDIQDLTTAHGAEIWAKYINRHTGRRSDAATAYVHSVMDVQDNLFLRCNARVSRVLFDDNNKAVGVAYVPSRNRTHGGKLHETIVKARKMVVLSSGTLGTPQILERSGVGNGELLRQLGIKIVSDLPGVGEQYQDHYTTLSIYRVSNESITTDDFLRGVKDVQRELFTEWEVSPEKARLSSNAIDAGFKIRPTEEELKEMGPEFNELWNRYFKDKPDKPVMFGSIVAGAYADHTLLPPGKYITMFQYLEYPASRGKIHIKSQNPYVEPFFDSGFMNNKADFAPIRWSYKKTREVARRMDAFRGELTSHHPRFHPASPAACKDIDIETAKQIYPDGLTVGIHMGSWHQPSEPYKHDKVIEDIPYTEEDDKAIDDWVADHVETTWHSLGTCAMKPREQGGVVDKRLNVYGTQNLKCVDLSICPDNLGTNTYSSALLVGEKGADLIAEELGLKIKTPHAPVPHAPVPTGRPATQQVR
notes: as for B1
B3: in series [1], the Km is recorded as 1 mM, the kcat was 5 s⁻¹ and the catalytic efficiency (kcat/Km) is 5000 M⁻¹ s⁻¹. In addition, in series [2], the Km is listed as 4 mM, the kcat was determined as 7 s⁻¹ and the specificity constant (kcat/Km) was 1800 M⁻¹ s⁻¹. Moreover, in series [3], the Michaelis-Menten constant (Km) is 2 mM, the catalytic constant (kcat) is 18 s⁻¹ and the kcat/Km amounted to 9000 M⁻¹ s⁻¹.

Usually Km stands for the concentration of substrate that gives half-maximal velocity. In general, kcat refers to the number of substrate molecules converted per active site and unit of time at saturation. What is called kcat/Km is the second-order rate constant that governs catalysis at low substrate concentration.
